Source: the supplement of paper PMC10567573

B1: FBXO3 (parent)
chain: AGGFQQRQGLKYCLPLTFCIHTGL

Variants of: B1
Experiment: protein stability index of a GFP-peptide fusion (GPS, HEK-293T) (PSI 1-6); higher = more stable
Conditions: c terminus: a fixed tail appended
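Note: lentivirally expressed fusions sorted by FACS into six bins by GFP to DsRed ratio, PSI derived from sequencing read proportions per bin multiplied by bin number.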

Protein stability index of substitutions, site by site:
G9: D 2.68, C 2.68, K 2.74, H 2.94, E 1.87, F 2.58, L 3.97, M 3.48, I 2.28
F4: T 2.82, Y 2.42, Q 2.37, H 2.54, R 2.36, E 3.03, I 3.07, D 1.87, P 2.09, A 3.49, S 2.38, C 2.66, M 2.69
Q5: C 3.02, K 2.88, G 3.92, R 2.27, A 3.05, S 3.59, P 1.71, N 2.77, V 2.33, Y 3.66, L 2.32, T 2, M 2.17, W 3.08, H 1.87, I 2.17, D 2.34, F 1.98
A1: T 3.47, P 2.91, R 2.39, M 3.13, E 2.57, N 2.47, Y 3.08, L 2.46, W 5.07, K 1.87, C 2.76, S 2.65, F 3.41, D 2.89, H 3.55, V 2.89, G 3.9, I 2, Q 2.55
G2: L 2.79, P 2.79, R 2.59, N 2.94, H 4.03, K 3.68, C 2.6, I 4.2, E 2.36, F 2.79, D 1.68, S 3.13, V 2.97, T 1.88, Y 2.4
Q8: F 2.59, V 2.22, R 2.99, I 2.51, A 2.82, H 2.66, Y 2.17, K 3.23, L 2.56
